Target: T1, NCU-G1 (kidney predominant protein), GST fusion (Homo sapiens, UniProt Q8WWB7 1-406)
T1 sequence: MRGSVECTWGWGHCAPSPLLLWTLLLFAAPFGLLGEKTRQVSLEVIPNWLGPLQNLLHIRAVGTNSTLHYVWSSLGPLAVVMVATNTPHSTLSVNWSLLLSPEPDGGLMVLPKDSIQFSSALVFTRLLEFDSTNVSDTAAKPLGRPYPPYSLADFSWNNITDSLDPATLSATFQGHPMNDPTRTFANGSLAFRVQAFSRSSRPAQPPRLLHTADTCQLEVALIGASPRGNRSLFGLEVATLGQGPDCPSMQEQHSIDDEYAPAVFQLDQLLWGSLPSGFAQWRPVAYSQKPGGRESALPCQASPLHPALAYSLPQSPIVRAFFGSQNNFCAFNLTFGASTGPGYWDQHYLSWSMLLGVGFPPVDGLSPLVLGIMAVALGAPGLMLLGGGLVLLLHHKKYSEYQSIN
Assay: competition; 50-fold molar excess unlabeled vs 32P-FP1, EMSA; EMSA: 3 x 10^4 cpm 32P probe with 2 ug GST-NCU-G1; buffer, salt, pH and temperature not given (as described in ref 17)
Conditions: protein: recombinant; tags: N-terminal GST (pGEX-5X-3); double-stranded

B1: AP1 oligonucleotide (dsDNA)
DNA 1: CGCTTGATGACTCAGCCGGAA
DNA 2: TTCCGGCTGAGTCATCAAGCG
B1: no binding.

Source: article PMC2233640, “Human NCU-G1 can function as a transcription factor and as a nuclear receptor co-activator”
